The supplement of paper PMC10724198
± gives the standard deviation of the averaged measurements.

Tested on: Saccharomyces cerevisiae
Assay: protein stability index of tFT-peptide fusion (C-terminal peptide) (PSI (0-1 scale)); higher = more stable (slower turnover)
Conditions: temperature: 30 C
Description: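 MPS profiling in S. cerevisiae of the yeast C-terminome library: the last 12 aa of each annotated ORF are fused to the C-terminus of a sfGFP-mCherry timer, after a GGGS linker. Cells are FACS-sorted into 8 mCherry/sfGFP bins and deep-sequenced. PSI runs from 0 (unstable) to 1 (stable); wild type and das1Δ backgrounds, two technical replicates each.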

[1] = genetic background: das1 deletion

Sequence | protein stability index [1] | protein stability index (genetic background: wild type)
RHSCGRQMRVLA [AUA1 C-terminal 12 aa] | 0.6614 ± 0.0011 | 0.248 ± 0.0083
RIEMDLALTEPL [ORC6 C-terminal 12 aa] | 0.691 ± 0.016 | 0.685 ± 0.015
RIRQEIIKTKLL [EMP47 C-terminal 12 aa] | 0.67995 ± 0.00042 | 0.234 ± 0.032
RKESSGGCCIIC [RAS1 C-terminal 12 aa] | 0.738 ± 0.014 | 0.709 ± 0.011
RKLLERSNKFHI [PET127 C-terminal 12 aa] | 0.689 ± 0.009 | 0.746 ± 0.088
RKPPGFFDEGFM [FLC3 C-terminal 12 aa] | 0.733 ± 0.061 | 0.6965 ± 0.0051
RKSENYLNGRQT [YNL067W-B C-terminal 12 aa] | 0.681 ± 0.017 | 0.721 ± 0.0088
RKVPYKIIPYVY [ERG24 C-terminal 12 aa] | 0.514 ± 0.019 | 0.5005 ± 0.0021
RLANIQSFFQRQ [TVP23 C-terminal 12 aa] | 0.7155 ± 0.0018 | 0.726 ± 0.064
RLIGELGKLTED [YNL115C C-terminal 12 aa] | 0.683 ± 0.0088 | 0.701 ± 0.037
RLLNLQKVIYST [LDB18 C-terminal 12 aa] | 0.662 ± 0.013 | 0.493 ± 0.064
RMIEYLEEYQAW [FRE4 C-terminal 12 aa] | 0.706 ± 0.0073 | 0.72 ± 0.011
RNIDVSNLPSLA [STM1 C-terminal 12 aa] | 0.691 ± 0.011 | 0.6785 ± 0.0067
RQVLDREGLRFG [TRS31 C-terminal 12 aa] | 0.693 ± 0.027 | 0.705 ± 0.0087
RRDVQSRSSMAC [HFL1 C-terminal 12 aa] | 0.702 ± 0.02 | 0.652 ± 0.0097
RREKRNKALKER [CGR1 C-terminal 12 aa] | 0.7064 ± 0.0034 | 0.6945 ± 0.0019
RRKLKGRWFLSH [MRX14 C-terminal 12 aa] | 0.702 ± 0.0078 | 0.562 ± 0.0085
RRRLTYHRYHPK [YML009C-A C-terminal 12 aa] | 0.731 ± 0.014 | 0.722 ± 0.012
RSASNRHVDYFL [PPG1 C-terminal 12 aa] | 0.6933 ± 0.0059 | 0.698 ± 0.033
RSKLFNLSINNP [SPC72 C-terminal 12 aa] | 0.6997 ± 0.001 | 0.6855 ± 0.0063
RSRKNEGSYLMH [HMT1 C-terminal 12 aa] | 0.6967 ± 0.00082 | 0.693 ± 0.0082

Sequence | protein stability index [1] | protein stability index (genetic background: wild type)
RSVYDYNGSLKV [CSR1 C-terminal 12 aa] | 0.686 ± 0.012 | 0.691 ± 0.015
RTKGQKWFDGLM [NAT2 C-terminal 12 aa] | 0.6819 ± 0.0031 | 0.698 ± 0.016
RTSPIDNVSNTH [NUT2 C-terminal 12 aa] | 0.693 ± 0.0018 | 0.693 ± 0.046
RYNDERLGPVQG [IRC24 C-terminal 12 aa] | 0.696 ± 0.021 | 0.684 ± 0.043
SAGSLEYTARYM [YML012C-A C-terminal 12 aa] | 0.693 ± 0.036 | 0.671 ± 0.0079
SANGYKRRRYGN [YHC1 C-terminal 12 aa] | 0.716 ± 0.019 | 0.732 ± 0.055
SASGKKKINKNN [ELO1 C-terminal 12 aa] | 0.6991 ± 0.0036 | 0.723 ± 0.042
SDDNNDENMDLD [SSE2 C-terminal 12 aa] | 0.694 ± 0.014 | 0.663 ± 0.018
SDDQILREFLYS [IRE1 C-terminal 12 aa] | 0.726 ± 0.004 | 0.7 ± 0.025
SDISDLDDLGFL [RPN3 C-terminal 12 aa] | 0.7213 ± 0.0065 | 0.679 ± 0.028
SDLQKMLNKRKS [CWC24 C-terminal 12 aa] | 0.69 ± 0.025 | 0.682 ± 0.0099
SDMYDSKRLLYV [YPL035C C-terminal 12 aa] | 0.652 ± 0.033 | 0.537 ± 0.034
SELENKFSNQES [FPY1 C-terminal 12 aa] | 0.7048 ± 0.0039 | 0.735 ± 0.053
SETFATPTPNNR [SPC42 C-terminal 12 aa] | 0.718 ± 0.022 | 0.725 ± 0.01
SFALVFKISAEV [YAR053W C-terminal 12 aa] | 0.448 ± 0.046 | 0.489 ± 0.022
SFDDGRVKRQRT [IOC3 C-terminal 12 aa] | 0.69 ± 0.014 | 0.715 ± 0.075
SFMSYSCDMPTP [YCL022C C-terminal 12 aa] | 0.7225 ± 0.0042 | 0.727 ± 0.071
SFNFDHFDHFDL [YIL054W C-terminal 12 aa] | 0.733 ± 0.019 | 0.743 ± 0.014
SGGWDRSIKLWN [PRP4 C-terminal 12 aa] | 0.711 ± 0.01 | 0.681 ± 0.026
SGNYFFLDNTGI [RLI1 C-terminal 12 aa] | 0.718 ± 0.015 | 0.754 ± 0.056
SGSGVHVIKRVG [ESS1 C-terminal 12 aa] | 0.701 ± 0.0075 | 0.65 ± 0.019

Sequence | protein stability index [1] | protein stability index (genetic background: wild type)
SGWSNFEDFFSR [YKL222C C-terminal 12 aa] | 0.744 ± 0.021 | 0.77 ± 0.019
SIKLTFGFGAVL [AHA1 C-terminal 12 aa] | 0.6981 ± 0.0022 | 0.711 ± 0.0087
SIQWIWRYSFVY [YIR020C C-terminal 12 aa] | 0.464 ± 0.0072 | 0.44 ± 0.025
SKDLGNVLTNLL [ESF2 C-terminal 12 aa] | 0.6902 ± 0.005 | 0.679 ± 0.035
SKFIEKFQDIVS [MED1 C-terminal 12 aa] | 0.701 ± 0.014 | 0.712 ± 0.018
SKKNVLYQKKNN [RTT107 C-terminal 12 aa] | 0.69 ± 0.0099 | 0.286 ± 0.014
SKLVKEYSVELR [MSF1 C-terminal 12 aa] | 0.687 ± 0.019 | 0.663 ± 0.05
SKNTREEKPTEL [MMM1 C-terminal 12 aa] | 0.698 ± 0.011 | 0.688 ± 0.018
SKPALGTCLYEQ [GAL3 C-terminal 12 aa] | 0.676 ± 0.0096 | 0.665 ± 0.03
SLEKLEMSKYGL [YKL033W-A C-terminal 12 aa] | 0.6995 ± 0.0021 | 0.6694 ± 0.004
SLRSFFVKQKVL [ERP6 C-terminal 12 aa] | 0.641 ± 0.0083 | 0.185 ± 0.025
SLSARKINMRKV [KRE9 C-terminal 12 aa] | 0.705 ± 0.033 | 0.644 ± 0.014
SMALRTVSILEN [YGL152C C-terminal 12 aa] | 0.683 ± 0.011 | 0.649 ± 0.025
SMKYPHTAALVR [YLR111W C-terminal 12 aa] | 0.578 ± 0.027 | 0.653 ± 0.072
SNGFKEWRKSLK [RAI1 C-terminal 12 aa] | 0.6824 ± 0.0012 | 0.67 ± 0.02
SNSSSSQKAAKE [HST2 C-terminal 12 aa] | 0.71 ± 0.033 | 0.651 ± 0.024
SNWARIFFCHHD [YDL186W C-terminal 12 aa] | 0.75 ± 0.015 | 0.713 ± 0.028
SPSPKPQHRRKR [ELO2 C-terminal 12 aa] | 0.734 ± 0.025 | 0.704 ± 0.029
SQLLLFGFGAMV [MDM32 C-terminal 12 aa] | 0.6998 ± 0.0031 | 0.705 ± 0.031
SQSCPFFPLMDD [YDR246W-A C-terminal 12 aa] | 0.738 ± 0.012 | 0.7463 ± 0.0073
SQSKIKAKIRPE [YJL193W C-terminal 12 aa] | 0.7134 ± 0.0044 | 0.666 ± 0.011

Sequence | protein stability index [1] | protein stability index (genetic background: wild type)
SRFLKRKSHHDK [SEC1 C-terminal 12 aa] | 0.687 ± 0.0091 | 0.723 ± 0.049
SRIELELKNIGL [ECM29 C-terminal 12 aa] | 0.684 ± 0.0096 | 0.762 ± 0.0041
SRILQYKCIFTY [ARP8 C-terminal 12 aa] | 0.517 ± 0.023 | 0.2402 ± 0.0014
SRTPPARRQRHR [CWC22 C-terminal 12 aa] | 0.7133 ± 0.0015 | 0.671 ± 0.012
SSDEEENEKELP [PWP2 C-terminal 12 aa] | 0.67854 ± 0.00042 | 0.705 ± 0.039
SSKAIQGNFDDL [SPB4 C-terminal 12 aa] | 0.704 ± 0.018 | 0.714 ± 0.047
SSLDEVLAKDKD [MIN8 C-terminal 12 aa] | 0.736 ± 0.018 | 0.6795 ± 0.0061
SSSSFISYPPQR [MAD3 C-terminal 12 aa] | 0.728 ± 0.019 | 0.6977 ± 0.0019
STAVRSIDALKN [HSP31 C-terminal 12 aa] | 0.701 ± 0.042 | 0.687 ± 0.0074
STERAKELLESN [MRF1 C-terminal 12 aa] | 0.666 ± 0.026 | 0.69 ± 0.033
STGSETKIADCR [HSM3 C-terminal 12 aa] | 0.683 ± 0.01 | 0.695 ± 0.021
STSGESFTETQF [ICL2 C-terminal 12 aa] | 0.6971 ± 0.0022 | 0.73 ± 0.054
STTIRAINALYS [HSP32 C-terminal 12 aa] | 0.675 ± 0.017 | 0.65 ± 0.037
SVFGEAEEVTNW [MET2 C-terminal 12 aa] | 0.701 ± 0.017 | 0.702 ± 0.031
SVTSKFKKYPYK [BET2 C-terminal 12 aa] | 0.7131 ± 0.0021 | 0.634 ± 0.026
SWISKEKRVSEE [HXT2 C-terminal 12 aa] | 0.731 ± 0.032 | 0.809 ± 0.04
SWLYNFDELLWQ [ALG8 C-terminal 12 aa] | 0.761 ± 0.011 | 0.727 ± 0.021
SYNDPALADFMP [NRE1 C-terminal 12 aa] | 0.7154 ± 0.007 | 0.744 ± 0.039
TAEPNRNVNQMP [YDL218W C-terminal 12 aa] | 0.678 ± 0.017 | 0.662 ± 0.013
